Results taken from the supplement of paper PMC7877785.
± gives the uncertainty stated by the source.

Test: self-splicing fitness, log relative to wild type (ln ratio); higher = more splicing; Tetrahymena group I intron in knt gene, E. coli kanamycin selection, DiMSum; sequences stand for … in CUCUCU…GGAGGGAAAAGUUAUCAGGCAUGCACCUGGUAGCUAGUCUUUAAACCAAUAGAUUGCAUCGGUUUAAAAGGCAAGACCGUCAAAUUGCGGGAAAGGGGUCAACAGCCGUUCAGUACCAAGUCUCAGGGGAAACUUUGAGAUGGCCUUGCAAAGGGUAUGGUAAUAAGCUGACGGACAUGGUCCUAACCACGCAGCCAAGUCCUAAGUCAACAGAUCUUCUGUUGAUAUGGAUGCAGUUCACAGACUAAAUGUCGGUCGGGGAAGAUGUAUUCUUCUCAUAAGAUAUAGUCGGACCUCUCCUUAAUGGGAGCUAGCGGAUGAAGUGAUGCAACACUGGAGCCGCUGGGAACUAAUUUGUAUGCGAAAGUAUAUUGAUUAGUUUUGGAGUACUCGUGGUCG
Procedure, shortened: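 Library with all eight P1ex-region intron nucleotides randomised, intron inside the knt kanamycin-resistance gene on pET-22b(+), in E. coli BL21(DE3). Cells grew overnight at 37°C or 30°C on LB agar with or without 25 μg/mL kanamycin (plus 100 μg/mL carbenicillin, 50 μM IPTG, 0.2% rhamnose), in six replicate transformations. Pooled colonies were amplicon-sequenced on Illumina HiSeq 2500. DiMSum fitness is the error-weighted combination of wild-type-normalised replicate fold changes, kanamycin versus none.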

| Sequence | self-splicing fitness (ln) (30 °C) | self-splicing fitness (ln) (37 °C) |
| --- | --- | --- |
| AUGUAGCAAUAUUACGACGC | -0.952 ± 0.12 | 0.119 ± 0.082 |
| AUGUAGCAAUAUUACGAUUC | -2.52 ± 0.31 | -1.12 ± 0.33 |
| AUGUAGCAAUAUUACGCCCC | -0.236 ± 0.22 | -0.186 ± 0.3 |
| AUGUAGCAAUAUUACGCUGA | -1.93 ± 0.15 | -1.29 ± 0.18 |
| AUGUAGCAAUAUUACGGAAU | -1.46 ± 0.082 | -0.789 ± 0.11 |
| AUGUAGCAAUAUUACGGAGA | – | -2.06 ± 0.38 |
| AUGUAGCAAUAUUACGGAGC | -4.16 ± 0.16 | -3.02 ± 0.15 |
| AUGUAGCAAUAUUACGGGGG | -3.28 ± 0.27 | -2.47 ± 0.37 |
| AUGUAGCAAUAUUACGGGUA | -2.63 ± 0.24 | -0.0625 ± 0.14 |
| AUGUAGCAAUAUUACGGUAC | -3.47 ± 0.38 | -1.89 ± 0.3 |
| AUGUAGCAAUAUUACGGUUU | -0.83 ± 0.085 | -0.694 ± 0.1 |
| AUGUAGCAAUAUUACGUAAC | -2.96 ± 0.17 | -1.54 ± 0.16 |
| AUGUAGCAAUAUUACGUACG | -1.41 ± 0.1 | -0.212 ± 0.13 |
| AUGUAGCAAUAUUACGUGAA | -2.3 ± 0.12 | -1.22 ± 0.14 |
| AUGUAGCAAUAUUACGUGCC | -1.65 ± 0.22 | -0.677 ± 0.2 |
| AUGUAGCAAUAUUACGUGGG | – | -3.13 ± 0.21 |
| AUGUAGCAAUAUUACGUUCA | -0.72 ± 0.075 | -0.276 ± 0.089 |
| AUGUAGCAAUAUUACGUUCG | -0.997 ± 0.095 | -0.356 ± 0.12 |
| AUUAAGCAAUAUUACGAAGC | -3.3 ± 0.25 | -2.52 ± 0.31 |
| AUUAAGCAAUAUUACGAAUG | -2.82 ± 0.2 | -0.206 ± 0.2 |
| AUUAAGCAAUAUUACGACCC | -1.2 ± 0.35 | – |
| AUUAAGCAAUAUUACGAGGA | -3.01 ± 0.28 | -0.871 ± 0.19 |
| AUUAAGCAAUAUUACGAUCA | -1.58 ± 0.17 | -0.409 ± 0.14 |
| AUUAAGCAAUAUUACGAUGU | -0.608 ± 0.07 | -0.0076 ± 0.084 |
| AUUAAGCAAUAUUACGCCCG | -1.13 ± 0.22 | 0.13 ± 0.33 |

| Sequence | self-splicing fitness (ln) (30 °C) | self-splicing fitness (ln) (37 °C) |
| --- | --- | --- |
| AUUAAGCAAUAUUACGCGAA | -1.32 ± 0.11 | -0.882 ± 0.13 |
| AUUAAGCAAUAUUACGCGGG | -2.61 ± 0.22 | -1.72 ± 0.17 |
| AUUAAGCAAUAUUACGCGUA | -1.27 ± 0.14 | -0.834 ± 0.16 |
| AUUAAGCAAUAUUACGCUUC | -3.05 ± 0.19 | -2.03 ± 0.18 |
| AUUAAGCAAUAUUACGCUUG | -1.87 ± 0.11 | -0.856 ± 0.14 |
| AUUAAGCAAUAUUACGGAGC | -2.62 ± 0.34 | -2.15 ± 0.31 |
| AUUAAGCAAUAUUACGGAUG | -2.15 ± 0.14 | -2.02 ± 0.22 |
| AUUAAGCAAUAUUACGGCCG | -0.768 ± 0.12 | 0.0891 ± 0.15 |
| AUUAAGCAAUAUUACGGGAU | -2.07 ± 0.15 | -0.652 ± 0.12 |
| AUUAAGCAAUAUUACGGGCG | -0.789 ± 0.085 | -0.228 ± 0.11 |
| AUUAAGCAAUAUUACGGGGA | -3.62 ± 0.38 | -1.41 ± 0.18 |
| AUUAAGCAAUAUUACGGUUG | -3.08 ± 0.21 | -2.56 ± 0.24 |
| AUUAAGCAAUAUUACGUCAC | – | -1.54 ± 0.4 |
| AUUAAGCAAUAUUACGUCUA | -0.611 ± 0.093 | 0.119 ± 0.091 |
| AUUAAGCAAUAUUACGUGUG | -1.9 ± 0.089 | -1.18 ± 0.1 |
| AUUAAGCAAUAUUACGUUCA | -0.728 ± 0.092 | -0.399 ± 0.12 |
| AUUAAGCAAUAUUACGUUCG | -0.91 ± 0.1 | -0.85 ± 0.14 |
| AUUAAGCAAUAUUACGUUCU | -0.566 ± 0.064 | 0.034 ± 0.086 |
| AUUCAGCAAUAUUACGAAAA | 0.178 ± 0.15 | 0.575 ± 0.17 |
| AUUCAGCAAUAUUACGAAAG | -1.5 ± 0.11 | -1.03 ± 0.13 |
| AUUCAGCAAUAUUACGAACG | -0.206 ± 0.085 | 0.232 ± 0.13 |
| AUUCAGCAAUAUUACGAGAC | – | -0.937 ± 0.18 |
| AUUCAGCAAUAUUACGAGCA | -0.457 ± 0.16 | -0.783 ± 0.2 |
| AUUCAGCAAUAUUACGAGGG | -2.42 ± 0.26 | -1.42 ± 0.34 |
| AUUCAGCAAUAUUACGAGGU | -3.61 ± 0.17 | -1.72 ± 0.14 |

| Sequence | self-splicing fitness (ln) (30 °C) | self-splicing fitness (ln) (37 °C) |
| --- | --- | --- |
| AUUCAGCAAUAUUACGAGUU | -2.76 ± 0.16 | -1.39 ± 0.13 |
| AUUCAGCAAUAUUACGCAGC | -1.82 ± 0.38 | -1.15 ± 0.26 |
| AUUCAGCAAUAUUACGCCUG | -1.95 ± 0.12 | -0.706 ± 0.19 |
| AUUCAGCAAUAUUACGCUGG | -3.36 ± 0.17 | -2.98 ± 0.26 |
| AUUCAGCAAUAUUACGGAUA | -1.72 ± 0.17 | -1.17 ± 0.14 |
| AUUCAGCAAUAUUACGGAUC | -3.24 ± 0.11 | -2.53 ± 0.18 |
| AUUCAGCAAUAUUACGGCUC | -0.786 ± 0.081 | -0.0849 ± 0.1 |
| AUUCAGCAAUAUUACGGGUA | -1.89 ± 0.11 | -1.31 ± 0.12 |
| AUUCAGCAAUAUUACGGUAU | -0.934 ± 0.065 | -0.155 ± 0.073 |
| AUUCAGCAAUAUUACGGUCG | -0.857 ± 0.085 | -0.679 ± 0.14 |
| AUUCAGCAAUAUUACGGUUA | -0.544 ± 0.089 | -0.305 ± 0.08 |
| AUUCAGCAAUAUUACGUGGA | -2.72 ± 0.18 | -1.79 ± 0.12 |
| AUUCAGCAAUAUUACGUGGC | -3.76 ± 0.14 | -2.21 ± 0.16 |
| AUUCAGCAAUAUUACGUGUU | -2.68 ± 0.1 | -1.39 ± 0.089 |
| AUUCAGCAAUAUUACGUUAU | -1.22 ± 0.079 | 0.0898 ± 0.095 |
| AUUGAGCAAUAUUACGAAUU | -2.85 ± 0.23 | -1.71 ± 0.24 |
| AUUGAGCAAUAUUACGACAA | -2.28 ± 0.29 | -1.31 ± 0.23 |
| AUUGAGCAAUAUUACGACUC | -2.94 ± 0.29 | -1.59 ± 0.27 |
| AUUGAGCAAUAUUACGAGUG | -2.69 ± 0.28 | -2.76 ± 0.38 |
| AUUGAGCAAUAUUACGAUAU | -2.76 ± 0.18 | -1.04 ± 0.17 |
| AUUGAGCAAUAUUACGCAGC | -1.85 ± 0.29 | -2.7 ± 0.38 |
| AUUGAGCAAUAUUACGCCCA | -2.25 ± 0.25 | -1.39 ± 0.39 |
| AUUGAGCAAUAUUACGCCUA | -1.99 ± 0.2 | -1.52 ± 0.2 |
| AUUGAGCAAUAUUACGCCUC | -2.53 ± 0.48 | -1.27 ± 0.42 |
| AUUGAGCAAUAUUACGCGGU | -2.19 ± 0.19 | – |

| Sequence | self-splicing fitness (ln) (30 °C) | self-splicing fitness (ln) (37 °C) |
| --- | --- | --- |
| AUUGAGCAAUAUUACGCGUC | -3.26 ± 0.19 | -1.73 ± 0.2 |
| AUUGAGCAAUAUUACGGCGG | -3.01 ± 0.19 | -1.05 ± 0.38 |
| AUUGAGCAAUAUUACGUAAC | -1.3 ± 0.3 | -1.53 ± 0.31 |
| AUUGAGCAAUAUUACGUGGU | -3.28 ± 0.21 | -3.12 ± 0.43 |
| AUUGAGCAAUAUUACGUUAU | -2.61 ± 0.2 | -1.86 ± 0.24 |
| AUUGAGCAAUAUUACGUUGG | -3.62 ± 0.36 | -0.682 ± 0.17 |
| AUUUAGCAAUAUUACGAAGU | -1.91 ± 0.23 | -1.24 ± 0.18 |
| AUUUAGCAAUAUUACGACCU | 0.0405 ± 0.29 | 0.114 ± 0.29 |
| AUUUAGCAAUAUUACGACGA | -0.672 ± 0.15 | 0.131 ± 0.18 |
| AUUUAGCAAUAUUACGACUA | -0.0865 ± 0.18 | -0.454 ± 0.15 |
| AUUUAGCAAUAUUACGAGAU | -3.55 ± 0.4 | -1.41 ± 0.28 |
| AUUUAGCAAUAUUACGAGGA | -2.7 ± 0.49 | -2.18 ± 0.4 |
| AUUUAGCAAUAUUACGAUCU | 0.177 ± 0.13 | 0.0446 ± 0.11 |
| AUUUAGCAAUAUUACGAUUC | -1.73 ± 0.22 | -0.798 ± 0.26 |
| AUUUAGCAAUAUUACGCACG | -1.9 ± 0.28 | -0.778 ± 0.2 |
| AUUUAGCAAUAUUACGCGAG | -2.19 ± 0.22 | -0.658 ± 0.2 |
| AUUUAGCAAUAUUACGCGUG | -1.2 ± 0.14 | -0.97 ± 0.14 |
| AUUUAGCAAUAUUACGCUCC | -1.4 ± 0.47 | – |
| AUUUAGCAAUAUUACGCUCG | -0.131 ± 0.1 | 0.715 ± 0.15 |
| AUUUAGCAAUAUUACGCUCU | 0.51 ± 0.27 | 0.235 ± 0.44 |
| AUUUAGCAAUAUUACGCUUU | -2.7 ± 0.16 | -1.2 ± 0.11 |
| AUUUAGCAAUAUUACGGCAG | -2.47 ± 0.14 | -0.321 ± 0.15 |
